B1: TPR t1 (parent)
chain: GACCAAUCUGCCCUCAGAGCUCGAGAACAUCUUCGGAUGCAGAGGAGGCAGGCUUCGGUGGCGCGAUAGCGCCAACGUCCUCAACCUCCAAUGCAUCCCACCACAUGAUGAUGCCUGAAGAGCCUUGGUUUUUUG

Variants of: B1
Test: polymerase ribozyme fitness, log enrichment relative to wild type (log ratio); higher = more active; in vitro selection for triplet polymerase activity
In short: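 In triplicate, a single round of in vitro selection was run on each mutant library, PCR-built and transcribed, covering one subunit of a heterodimeric triplet polymerase ribozyme. Frozen incubation at −7 °C followed annealing with a biotinylated primer, partner subunit and triplets, and extended constructs were then gel-excised, streptavidin-captured and taken through RT-PCR. Fitness is the logarithm of genotype enrichment over wild-type enrichment, from inverse-variance-weighted replicate averages of Illumina-sequenced inputs and outputs. […] only genotypes with ≥10 input reads and ≥1 read per output were kept.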

| Variant | polymerase ribozyme fitness (log ratio) |
| --- | --- |
| A26G G42C | -4.99 |
| A29G C40A C99G A111G | -7.69 |
| A26G G69U | -2.23 |
| C28G C34U G35U A37U A95C C114U U133G | -6.83 |
| A27U G122A | -4.26 |
| A29G C76U G77C | -2.58 |
| C28U C72U C82U | -1.52 |
| A27U C101A | -4.18 |
| A29C A37G G47U C72U C101U G110U | -6.59 |
| C28U G93A | -1.92 |
| A27G C49U A91C | -4.72 |
| A26U C72A | -2.97 |
| A27U G60U | -3.37 |
| A27U U96C C124G | -1.73 |
| A27U C115U | -3.71 |
| A26U C53U C72U U116G | -6.07 |
| C28G C98U C124U | -3.04 |
| A29G C53A A91G C98A A111G | -7 |
| C28G G69U A121C | 0.386 |
| A26G G42C C72A | -5.15 |
| A29G A105U | -4.23 |

| Variant | polymerase ribozyme fitness (log ratio) |
| --- | --- |
| C28U A111U | -3.7 |
| C28U A111C | -3.29 |
| A27C C28G | -4 |
| A27C C28U | -5.13 |
| A27U A83U C86U U129C | -3.64 |
| A27G A46G C89G | -4.52 |
| A27G G61A U81C A84C C104U G110U U131C | -2.62 |
| C28U C62U | -2.6 |
| C28A C97U G110C | -1.97 |
| A26G G48A C49G A121U | -0.318 |
| A26U A43U A121U | -4.81 |
| C28U G60C A118G | -2.75 |
| A27U U54C G71U C98A U132C | -6.73 |
| A27C A43G | -5.95 |
| A29C A37C C94U G120C | -4.25 |
| A27U G127A | -4.51 |
| A27U G63C G71A C82G G113A U129A | -5.8 |
| C28U G63U G77A C94A U112C | -6.92 |
| C28U C64U U87A | -1.96 |
| A27G G52A C56U | -2.59 |
| A29G G39U C72G | -3.09 |

| Variant | polymerase ribozyme fitness (log ratio) |
| --- | --- |
| A27C C62U C94U | -2.79 |
| A26G U109G | -6.07 |
| A27U U78C U81A C94U | -4.92 |
| C28G G52A C70U C86U C101U G110A U131G | -2.57 |
| A26U G127C | -3.57 |
| A29C A37C C53A G110U | -5.11 |
| C28A C73A | -4.02 |
| C28U U87A | -2.17 |
| C28G G63U | -4.26 |
| A27C A43C C114U | -4.33 |
| A27G C85A | -3.2 |
| A26U G36U C101U | -5.32 |
| C28G A118G | -2.17 |
| C28U C56U C73G U78C C101A | -5.44 |
| C28U U59C G61A C123U | -6.95 |
| A29G C73A | -1.67 |
| A27U U54C U109A G117A A118U U129G | -5.85 |
| A27C U78G U125A | -4.05 |
| A27U C49A C56U C62U U87G G113C | -6.58 |
| C28U A108G | -4.76 |
| A29C A50U C104A C114G | -8.27 |

| Variant | polymerase ribozyme fitness (log ratio) |
| --- | --- |
| C28U A121C | -0.0887 |
| A26U G42C | -6.73 |
| C28U U55C G71A | -3.34 |
| C28U A41C G57C | -2.88 |
| A27U C72U | -3.48 |
| C28U G45A C49G C72U G122A | -4.63 |
| C28U A43G G113A | -3.91 |
| A29G C53A C70G G110C | -5.69 |
| A26U C62G | -4.89 |
| A27G C86U | -2.44 |
| A26G G36U C72G | -4.71 |
| A29C G71A C88G C123A U131C | -4.27 |
| A26G G47A C49G G71U | -4.24 |
| A26U G69A U78G U106A | -4.44 |
| C28U G63C U78C U92G C99G A103U G110A | -4.52 |
| A27C U87A A91G | -4.73 |
| A27G C53U C72A C102U | -3.85 |
| C28A U112A | -1.21 |
| C28U A50U C123U | -3.55 |
| A27C G61A | -4.32 |
